Test results published in PMC3240820.
pKd: −log10 of the molar value.

Target: C-terminal His-tagged Caskin1 SAM mutant G520E (human) (UniProt Q8WXD9)
Assay: SPR

Sequence of C-terminal His-tagged Caskin1 SAM mutant G520E (human) (Q8WXD9 470-605 G520E): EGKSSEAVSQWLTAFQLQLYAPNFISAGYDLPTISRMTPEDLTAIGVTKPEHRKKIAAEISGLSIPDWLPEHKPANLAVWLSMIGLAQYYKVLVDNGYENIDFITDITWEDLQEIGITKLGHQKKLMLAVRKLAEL

pKd: 4.66
Substance: Caskin1 SAM mutant G566K (from UniProt Q8WXD9 470-605) (domain or fragment)
